Legend:
[1] = test system: ICB DNA sequence (ICB1/ICB2 boxes of the human topoisomerase IIα promoter); assay: Gel retardation (acrylamide gel) binding of protein to 32P-labelled ICB oligonucleotides; conditions: 1 μg protein, 1 ng 32P-labelled oligonucleotide, competition with non-labelled oligonucleotides
Description: To test the ability of the 59 kDa protein to bind specifically to the ICB1 and/or ICB2 boxes, three tandem copies of ICB2 (ICB2X3, sequences described above) were labelled at the terminal end with 32 P phosphore using the T4 polynucleotide kinase (New England Biolabs) and […] (160 mCi/mmol, ICN Irvine, Calif., USA). To examine the specificity of the binding, oligonucleotides containing only one copy of the CCAAT box were synthesized:
The ICBP-59 protein (1 μg) was incubated with 1 ng of oligonucleotide and labelled at its terminal end by phosphorous ^32P in 12% glycerol, 12 mM HEPES-NaOH (pH 7.9), 60 mM KCl, 4 mM Tris-HCl (pH 7.9), 100 ng BSA, 0.6 mM DTT, and 100 ng poly(dI/dC) in 20 μl (Inouye et al., 1994). After a 30-minutes incubation at room temperature, the reaction mix was loaded in 6% polyacrylamide gels. In competition experiments, the quantity indicated of non-labelled oligonucleotides were added to the reaction mix 10 minutes before the addition of proteins. To examine the binding properties of ICBP90 with regard to the ICB2 box, we used the same protocol except that labelled oligonucleotide contained only one copy of the CCAAT sequence as described below:
Binding specificity was studied using a non-labelled nucleotide containing a GC box of the human topoisomerase IIa promoter: […]

[2] = molecular target: T1, TIP60 (Tat Interactive Protein, 60 kDa) (Homo sapiens, UniProt Q92993); assay: Double-hybrid technique, protein-protein interaction; assay type: binding
T1 construct: expressed in transfected cells; own knowledge
Text: The TIP60 protein has very recently been described as being a coactivator of the nuclear receptor, especially the receptor for the androgens (Brady M E et al., 1999).

T1 sequence (Q92993 whole entry, species assumed): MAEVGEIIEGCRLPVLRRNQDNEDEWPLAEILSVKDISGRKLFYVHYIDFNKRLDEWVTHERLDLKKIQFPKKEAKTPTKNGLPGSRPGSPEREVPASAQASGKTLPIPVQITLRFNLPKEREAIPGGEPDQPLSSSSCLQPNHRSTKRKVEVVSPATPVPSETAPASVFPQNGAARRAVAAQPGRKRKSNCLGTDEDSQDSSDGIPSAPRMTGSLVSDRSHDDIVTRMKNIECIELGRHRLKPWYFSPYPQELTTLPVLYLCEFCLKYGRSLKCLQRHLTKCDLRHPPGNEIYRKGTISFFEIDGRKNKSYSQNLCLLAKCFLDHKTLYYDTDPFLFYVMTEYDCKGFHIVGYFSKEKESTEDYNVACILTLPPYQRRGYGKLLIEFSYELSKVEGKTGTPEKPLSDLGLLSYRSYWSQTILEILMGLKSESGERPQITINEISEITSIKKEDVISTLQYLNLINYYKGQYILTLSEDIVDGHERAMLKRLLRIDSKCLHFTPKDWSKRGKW

interaction with TIP60 [2]	Molecule	ability to bind specifically an ICB DNA sequence [1]
–	ICBP-59: 59 kDa C-terminal fragment, amino acids 263 to 793 of SEQ ID NO. 2 (protein, listed as Homo sapiens) DDSLNDCRIIFVDEVFKIERPGEGSPMVDNPMRRKSGPSCKHCKDDVNRLCRVCACHLCGGRQDPDKQLMCDECDMAFHIYCLDPPLSSVPSEDEWYCPECRNDASEVVLAGERLRESKKNAKMASATSSSQRDWGKGMACVGRTKECTIVPSNHYGPIPGIPVGTMWRFRVQVSESGVHRPHVAGIHGRSNDGSYSLVLAGGYEDDVDHGNFFTYTGSGGRDLSGNKRTAEQSCDQKLTNTNRALALNCFAPINDQEGAEAKDWRSGKPVRVVRNVKGGKNSKYAPAEGNRYDGIYKVVKYWPEKGKSGFLVWRYLLRRDDDEPGPWTKEGKDRIKKLGLTMQYPEGYLEALANREREKENSKREEEEQQEGGFASPRTGKGKWKRKSAGGGPSRAGSPRRTSKKTKVEPYSLTAQQSSLIREDKSNAKLWNEVLASLKDRPASGSPFQLFLSKVEETFQCICCQELVFRPITTVCQHNVCKDCLDRSFRAQVFSCPACRYDLGRSYAMQVNQPLQTVLNQLFPGYGNGR	can specifically bind an ICB DNA sequence
existence of interactions	ICBP90: Inverted CCAAT Box Binding Protein of 90 kDa, 793 amino acids, SEQ ID No.2 (protein, listed as Homo sapiens) MWIQVRTMDGRQTHTVDSLSRLTKVEELRRKIQELFHVEPGLQRLFYRGKQMEDGHTLFDYEVRLNDTIQLLVRQSLVLPHSTKERDSELSDTDSGCCLGQSESDKSSTHGEAAAETDSRPADEDMWDETELGLYKVNEYVDARDTNMGAWFEAQVVRVTRKAPSRDEPCSSTSRPALEEDVIYHVKYDDYPENGVVQMNSRDVRARARTIIKWQDLEVGQVVMLNYNPDNPKERGFWYDAEISRKRETRTARELYANVVLGDDSLNDCRIIFVDEVFKIERPGEGSPMVDNPMRRKSGPSCKHCKDDVNRLCRVCACHLCGGRQDPDKQLMCDECDMAFHIYCLDPPLSSVPSEDEWYCPECRNDASEVVLAGERLRESKKNAKMASATSSSQRDWGKGMACVGRTKECTIVPSNHYGPIPGIPVGTMWRFRVQVSESGVHRPHVAGIHGRSNDGSYSLVLAGGYEDDVDHGNFFTYTGSGGRDLSGNKRTAEQSCDQKLTNTNRALALNCFAPINDQEGAEAKDWRSGKPVRVVRNVKGGKNSKYAPAEGNRYDGIYKVVKYWPEKGKSGFLVWRYLLRRDDDEPGPWTKEGKDRIKKLGLTMQYPEGYLEALANREREKENSKREEEEQQEGGFASPRTGKGKWKRKSAGGGPSRAGSPRRTSKKTKVEPYSLTAQQSSLIREDKSNAKLWNEVLASLKDRPASGSPFQLFLSKVEETFQCICCQELVFRPITTVCQHNVCKDCLDRSFRAQVFSCPACRYDLGRSYAMQVNQPLQTVLNQLFPGYGNGR	identical from top to bottom to that observed for ICBP-59

Source: patent US7199218B1, “ICBP90 polypeptide and its fragments and polynucleotides coding for said polypeptides and applications for diagnosing and treating cancer” (Institut National de la Sante et de la Recherche Medicale …, priority 1999, dated 2007)
